Here are results for 1 molecule from paper PMC6627233 (The EMBO Journal, 2019).

This assay concerns the target Flag-tagged MAVS (UniProt Q7Z434 1-540). Description: far-Western, overlay or dot blot.

Sequence of Flag-tagged MAVS (Q7Z434 whole entry): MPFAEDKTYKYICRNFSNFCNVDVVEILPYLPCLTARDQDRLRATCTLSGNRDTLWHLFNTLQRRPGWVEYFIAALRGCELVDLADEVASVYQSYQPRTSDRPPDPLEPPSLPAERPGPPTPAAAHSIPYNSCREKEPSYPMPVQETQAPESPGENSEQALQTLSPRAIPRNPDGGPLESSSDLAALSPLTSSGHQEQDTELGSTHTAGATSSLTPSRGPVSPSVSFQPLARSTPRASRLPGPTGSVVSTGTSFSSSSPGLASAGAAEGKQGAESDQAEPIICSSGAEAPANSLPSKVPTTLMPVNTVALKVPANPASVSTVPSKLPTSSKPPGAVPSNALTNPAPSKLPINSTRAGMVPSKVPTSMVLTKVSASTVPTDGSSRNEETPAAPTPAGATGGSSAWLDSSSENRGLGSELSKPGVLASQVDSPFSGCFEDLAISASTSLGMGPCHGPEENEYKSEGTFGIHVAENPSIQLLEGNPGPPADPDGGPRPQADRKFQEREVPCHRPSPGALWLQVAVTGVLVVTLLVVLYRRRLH

B1: GST-tagged RNF34 (natural protein)
chain: MKAGATSMWASCCGLLNEVMGTGAVRGQQSAFAGATGPFRFTPNPEFSTYPPAATEGPNIVCKACGLSFSVFRKKHVCCDCKKDFCSVCSVLQENLRRCSTCHLLQETAFQRPQLMRLKVKDLRQYLILRNIPIDTCREKEDLVDLVLCHHGLGSEDDMDTSSLNSSRSQTSSFFTRSFFSNYTAPSATMSSFQGELMDGDQTSRSGVPAQVQSEITSANTEDDDDDDDEDDDDEEENAEDRNPGLSKERVRASLSDLSSLDDVEGMSVRQLKEILARNFVNYSGCCEKWELVEKVNRLYKENEENQKSYGERLQLQDEEDDSLCRICMDAVIDCVLLECGHMVTCTKCGKRMSECPICRQYVVRAVHVFKS
For the molecule B1, the binding result is “binds”.
